Assay results from patent EP4717706A1.

Tests used:
[1] = biological target: VLP2 (virus-like particles, capsid protein particles of AAV serotype 2) (AAV serotype 2 (AAV2)) (UniProt P03135); test: ELISA on immobilised VLP2 (purified protein, 5 µg/mL); start of alkali treatment, the reference of the ratio
[2] = biological target: VLP2 (virus-like particles, capsid protein particles of AAV serotype 2) (AAV serotype 2 (AAV2)) (UniProt P03135); test: ELISA on immobilised VLP2 (culture supernatant); A450 after 1:1 1 M NaOH, 15 min, 30°C divided by A450 untreated
[3] = biological target: VLP2 (virus-like particles, capsid protein particles of AAV serotype 2) (AAV serotype 2 (AAV2)) (UniProt P03135); test: ELISA on immobilised VLP2 (purified protein, 5 µg/mL); A450 after 1:1 1 M NaOH with 1 mM CaCl2, 30°C, 30 min divided by A450 at 0 time
[4] = biological target: VLP2 (virus-like particles, capsid protein particles of AAV serotype 2) (AAV serotype 2 (AAV2)) (UniProt P03135); test: ELISA on immobilised VLP2 (purified protein, 5 µg/mL); A450 after 1:1 1 M NaOH with 1 mM CaCl2, 30°C, 60 min divided by A450 at 0 time
[5] = biological target: VLP2 (virus-like particles, capsid protein particles of AAV serotype 2) (AAV serotype 2 (AAV2)) (UniProt P03135); test: ELISA on immobilised VLP2 (purified protein, 5 µg/mL); A450 after 1:1 1 M NaOH with 1 mM CaCl2, 30°C, 20 min divided by A450 at 0 time
[6] = biological target: VLP2 (virus-like particles, capsid protein particles of AAV serotype 2) (AAV serotype 2 (AAV2)) (UniProt P03135); test: ELISA on immobilised VLP2 (purified protein, 5 µg/mL); A450 after 1:1 1 M NaOH with 1 mM CaCl2, 30°C, 60 min divided by A450 at 0 time; remark: listed apart in the source
[7] = biological target: VLP2 (virus-like particles, capsid protein particles of AAV serotype 2) (AAV serotype 2 (AAV2)) (UniProt P03135); test: ELISA on immobilised VLP2 (purified protein, 5 µg/mL); A450 after 1:1 1 M NaOH with 1 mM CaCl2, 30°C, 30 min divided by A450 at 0 time; remark: listed apart in the source
[8] = biological target: VLP2 (virus-like particles, capsid protein particles of AAV serotype 2) (AAV serotype 2 (AAV2)) (UniProt P03135); test: ELISA on immobilised VLP2 (purified protein, 5 µg/mL); A450 after 1:1 1 M NaOH with 1 mM CaCl2, 30°C, 60 min divided by A450 at 0 time; remark: listed apart in the source
[9] = biological target: VLP2 (virus-like particles, capsid protein particles of AAV serotype 2) (AAV serotype 2 (AAV2)) (UniProt P03135); test: ELISA on immobilised VLP2 (purified protein, 5 µg/mL); A450 after 1:1 1 M NaOH with 1 mM CaCl2, 30°C, 30 min divided by A450 at 0 time; remark: listed apart in the source
[10] = biological target: VLP2 (virus-like particles, capsid protein particles of AAV serotype 2) (AAV serotype 2 (AAV2)) (UniProt P03135); test: ELISA on immobilised VLP2 (purified protein, 5 µg/mL); A450 after 1:1 1 M NaOH with 1 mM CaCl2, 30°C, 45 min divided by A450 at 0 time
[11] = biological target: VLP2 (virus-like particles, capsid protein particles of AAV serotype 2) (AAV serotype 2 (AAV2)) (UniProt P03135); test: ELISA on immobilised VLP2 (purified protein, 5 µg/mL); A450 after 1:1 1 M NaOH with 1 mM CaCl2, 30°C, 20 min divided by A450 at 0 time; remark: listed apart in the source
[12] = biological target: VLP2 (virus-like particles, capsid protein particles of AAV serotype 2) (AAV serotype 2 (AAV2)) (UniProt P03135); test: ELISA on immobilised VLP2 (purified protein); start of alkali treatment, the reference of the ratio
[13] = biological target: VLP2 (virus-like particles, capsid protein particles of AAV serotype 2) (AAV serotype 2 (AAV2)) (UniProt P03135); test: ELISA on immobilised VLP2 (purified protein); A450 after 1:1 0.5 M NaOH, 30°C, 30 min divided by A450 at 0 time
[14] = biological target: VLP2 (virus-like particles, capsid protein particles of AAV serotype 2) (AAV serotype 2 (AAV2)) (UniProt P03135); test: ELISA on immobilised VLP2 (purified protein); A450 after 1:1 0.5 M NaOH, 30°C, 60 min divided by A450 at 0 time

UniProt P03135, sequence (P03135 whole entry): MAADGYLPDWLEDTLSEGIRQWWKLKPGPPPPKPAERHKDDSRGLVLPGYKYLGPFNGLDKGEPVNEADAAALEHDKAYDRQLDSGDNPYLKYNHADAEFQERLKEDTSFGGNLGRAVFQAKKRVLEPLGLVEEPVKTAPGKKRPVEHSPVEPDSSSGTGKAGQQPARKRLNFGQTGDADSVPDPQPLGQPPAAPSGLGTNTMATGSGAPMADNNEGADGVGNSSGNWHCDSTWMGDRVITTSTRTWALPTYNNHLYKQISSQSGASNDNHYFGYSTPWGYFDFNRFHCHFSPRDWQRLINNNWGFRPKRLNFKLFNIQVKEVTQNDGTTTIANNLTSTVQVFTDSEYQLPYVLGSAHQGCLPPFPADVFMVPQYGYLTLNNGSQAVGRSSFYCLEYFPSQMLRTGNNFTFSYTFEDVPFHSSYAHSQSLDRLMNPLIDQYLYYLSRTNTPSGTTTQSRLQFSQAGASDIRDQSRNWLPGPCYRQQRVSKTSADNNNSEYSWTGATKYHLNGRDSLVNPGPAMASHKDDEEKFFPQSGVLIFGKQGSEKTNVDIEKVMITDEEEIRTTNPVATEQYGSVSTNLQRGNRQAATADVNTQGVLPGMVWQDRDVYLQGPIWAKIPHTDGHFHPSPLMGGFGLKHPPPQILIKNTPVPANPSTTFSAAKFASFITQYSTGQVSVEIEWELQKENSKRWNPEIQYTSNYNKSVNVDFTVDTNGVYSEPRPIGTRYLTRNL

B1: AVR28 (AVR25c with I366F, V394A, K455R) (receptor)
chain: MGSAGESDQITLPKHEAQLKVYVLLVPPKGEASTYDWQLITHPRDYSGEMEGEHSQFLKLSNLTPGLYEYRAVVEGQNAHSEGYANVTVEPGPRKNRPPIAIVSPQFQEISLPTTSAVIDGSQSTDDDKIVQYHWEELKGPLREERISEDTPILKLSNLVPGNYTFRLTVVDTDGATDSTTADLTVNKAVDHHHHHH
Remaining activity [%] [1]: 100% | Remaining activity [%] [2]: 71.9% | Remaining activity [%] [3]: 22.5% | Remaining activity [%] [4]: 3% | Remaining activity [%] [5]: 42.5% | Remaining activity [%] [6]: 1.22% | Remaining activity [%] [7]: 42% | Remaining activity [%] [8]: 6.29%

B2: AVR29a (AVR25c with I366F, V394A, K455R, T474R) (receptor)
chain: MGSAGESDQITLPKHEAQLKVYVLLVPPKGEASTYDWQLITHPRDYSGEMEGEHSQFLKLSNLTPGLYEYRAVVEGQNAHSEGYANVTVEPGPRKNRPPIAIVSPQFQEISLPTTSAVIDGSQSTDDDKIVQYHWEELKGPLREERISEDTPILKLSNLVPGNYRFRLTVVDTDGATDSTTADLTVNKAVDHHHHHH
Remaining activity [%] [1]: 100% | Remaining activity [%] [3]: 24.2% | Remaining activity [%] [4]: 5.07%

B3: AVR27b (AVR25c with I366F, T474R) (receptor)
chain: MGSAGESDQITLPKHEAQLKVYVLLVPPKGEASTYDWQLITHPRDYSGEMEGEHSQFLKLSNLTPGLYEYRAVVEGQNAHSEGYVNVTVEPGPRKNRPPIAIVSPQFQEISLPTTSAVIDGSQSTDDDKIVQYHWEELKGPLREEKISEDTPILKLSNLVPGNYRFRLTVVDTDGATDSTTADLTVNKAVDHHHHHH
Remaining activity [%] [1]: 100% | Remaining activity [%] [9]: 17.1% | Remaining activity [%] [10]: 4.54%

B4: AVR27c (AVR25c with V394A, T474R) (receptor)
chain: MGSAGESDQITLPKHEAQLKVYVLLVPPKGEASTYDWQLITHPRDYSGEMEGEHSQILKLSNLTPGLYEYRAVVEGQNAHSEGYANVTVEPGPRKNRPPIAIVSPQFQEISLPTTSAVIDGSQSTDDDKIVQYHWEELKGPLREEKISEDTPILKLSNLVPGNYRFRLTVVDTDGATDSTTADLTVNKAVDHHHHHH
Remaining activity [%] [1]: 100% | Remaining activity [%] [9]: 13.6% | Remaining activity [%] [10]: 1.73%

B5: AVR27d (AVR25c with K455R, T474R) (receptor)
chain: MGSAGESDQITLPKHEAQLKVYVLLVPPKGEASTYDWQLITHPRDYSGEMEGEHSQILKLSNLTPGLYEYRAVVEGQNAHSEGYVNVTVEPGPRKNRPPIAIVSPQFQEISLPTTSAVIDGSQSTDDDKIVQYHWEELKGPLREERISEDTPILKLSNLVPGNYRFRLTVVDTDGATDSTTADLTVNKAVDHHHHHH
Remaining activity [%] [1]: 100% | Remaining activity [%] [9]: 15.8% | Remaining activity [%] [10]: 5.11%

B6: AVR29b (AVR25c with G314D, I366F, V394A, K455R) (receptor)
chain: MGSADESDQITLPKHEAQLKVYVLLVPPKGEASTYDWQLITHPRDYSGEMEGEHSQFLKLSNLTPGLYEYRAVVEGQNAHSEGYANVTVEPGPRKNRPPIAIVSPQFQEISLPTTSAVIDGSQSTDDDKIVQYHWEELKGPLREERISEDTPILKLSNLVPGNYTFRLTVVDTDGATDSTTADLTVNKAVDHHHHHH
Remaining activity [%] [1]: 100% | Remaining activity [%] [10]: 1.31% | Remaining activity [%] [11]: 58.7% | Remaining activity [%] [5]: 63.7% | Remaining activity [%] [6]: 1.08%

B7: AVR29c (AVR25c with I366F, V394A, K455R, K497E) (receptor)
chain: MGSAGESDQITLPKHEAQLKVYVLLVPPKGEASTYDWQLITHPRDYSGEMEGEHSQFLKLSNLTPGLYEYRAVVEGQNAHSEGYANVTVEPGPRKNRPPIAIVSPQFQEISLPTTSAVIDGSQSTDDDKIVQYHWEELKGPLREERISEDTPILKLSNLVPGNYTFRLTVVDTDGATDSTTADLTVNEAVDHHHHHH
Remaining activity [%] [1]: 100% | Remaining activity [%] [10]: 1.93% | Remaining activity [%] [11]: 78.7% | Remaining activity [%] [5]: 93.2% | Remaining activity [%] [6]: 2.39% | Remaining activity [%] [7]: 57.7% | Remaining activity [%] [8]: 15.7%

B8: AVR29d (AVR25c with I366F, V394A, K455R, V499I) (receptor)
chain: MGSAGESDQITLPKHEAQLKVYVLLVPPKGEASTYDWQLITHPRDYSGEMEGEHSQFLKLSNLTPGLYEYRAVVEGQNAHSEGYANVTVEPGPRKNRPPIAIVSPQFQEISLPTTSAVIDGSQSTDDDKIVQYHWEELKGPLREERISEDTPILKLSNLVPGNYTFRLTVVDTDGATDSTTADLTVNKAIDHHHHHH
Remaining activity [%] [1]: 100% | Remaining activity [%] [10]: 4.47% | Remaining activity [%] [11]: 63% | Remaining activity [%] [5]: 68.6% | Remaining activity [%] [6]: 1.06%

B9: AVR24a (AVR21 with N329K, E401G, T426A) (receptor)
chain: MGSAGESDQITLPKHEAQLKVYVLLVPPKGEASTYDWQLITHPRDYSGEMEGEHSQILKLSNLTPGLYEYRAVVEGQNAHSEGYVNVTVEPGPRKNRPPIAIVSPQFQEISLPTTSAVIDGSQSTDDDKIVQYHWEELKGPLREEKISEDTAILKLSQLVPGNYTFRLTVVDTDGATDSTTADLTVNKAVDHHHHHH
Remaining activity [%] [12]: 100% | Remaining activity [%] [13]: 37.6% | Remaining activity [%] [14]: 0.3%

B10: AVR24b (AVR21 with K338R, T426A, A461P) (receptor)
chain: MGSAGESDQITLPKHEAQLNVYVLLVPPRGEASTYDWQLITHPRDYSGEMEGEHSQILKLSNLTPGLYEYRAVVEGQNAHSEGYVNVTVEPEPRKNRPPIAIVSPQFQEISLPTTSAVIDGSQSTDDDKIVQYHWEELKGPLREEKISEDTPILKLSQLVPGNYTFRLTVVDTDGATDSTTADLTVNKAVDHHHHHH
Remaining activity [%] [12]: 100% | Remaining activity [%] [13]: 89.1% | Remaining activity [%] [14]: 17.6%

B11: AVR25b (AVR21 with K338R, E401G, T426A, A461P) (receptor)
chain: MGSAGESDQITLPKHEAQLNVYVLLVPPRGEASTYDWQLITHPRDYSGEMEGEHSQILKLSNLTPGLYEYRAVVEGQNAHSEGYVNVTVEPGPRKNRPPIAIVSPQFQEISLPTTSAVIDGSQSTDDDKIVQYHWEELKGPLREEKISEDTPILKLSQLVPGNYTFRLTVVDTDGATDSTTADLTVNKAVDHHHHHH
Remaining activity [%] [12]: 100% | Remaining activity [%] [13]: 100% | Remaining activity [%] [14]: 1.5%

B12: AVR26 (AVR21 with N329K, K338R, E401G, T426A, A461P) (receptor)
chain: MGSAGESDQITLPKHEAQLKVYVLLVPPRGEASTYDWQLITHPRDYSGEMEGEHSQILKLSNLTPGLYEYRAVVEGQNAHSEGYVNVTVEPGPRKNRPPIAIVSPQFQEISLPTTSAVIDGSQSTDDDKIVQYHWEELKGPLREEKISEDTPILKLSQLVPGNYTFRLTVVDTDGATDSTTADLTVNKAVDHHHHHH
Remaining activity [%] [12]: 100% | Remaining activity [%] [13]: 100% | Remaining activity [%] [14]: 23.9%

B13: AVR25c_T474R (AVR25c with T474R) (receptor)
chain: MGSAGESDQITLPKHEAQLKVYVLLVPPKGEASTYDWQLITHPRDYSGEMEGEHSQILKLSNLTPGLYEYRAVVEGQNAHSEGYVNVTVEPGPRKNRPPIAIVSPQFQEISLPTTSAVIDGSQSTDDDKIVQYHWEELKGPLREEKISEDTPILKLSNLVPGNYRFRLTVVDTDGATDSTTADLTVNKAVDHHHHHH
Remaining activity [%] [2]: 100%
